Results taken from patent US20230265151A1, “GIP/GLP1 CO-AGONIST COMPOUNDS” (priority 2020, published 2023).
Residue numbers refer to the chain shown, from its start. *1 amine or outer side, *2 acyl side, *3 side chain or, on linkers, in order; H or OH if unused. Where no end group is shown, it is not given here. Side-chain parts run from the residue outwards. [ ]: non-standard residue; d: D form. The star is where a group is joined. αMePhe(2-F) = C[C@](N)(Cc1ccccc1F)C(=O)O; γGlu = O=C(O)[C@H](CCC(=O)[*:2])N[*:1]; C14 diacid = O=C(O)CCCCCCCCCCCCC(=O)*; αMeY = C[C@](N)(Cc1ccc(O)cc1)C(=O)O; αMeF = C[C@](N)(Cc1ccccc1)C(=O)O; αMeL = CC(C)C[C@](C)(N)C(=O)O; Orn = NCCC[C@H](N)C(=O)O; AEEA = NCCOCCOCC(=O)O; Aib = CC(C)(N)C(=O)O

T1: human GIP receptor (human, UniProt P48546 22-466)
T1 sequence (looked up): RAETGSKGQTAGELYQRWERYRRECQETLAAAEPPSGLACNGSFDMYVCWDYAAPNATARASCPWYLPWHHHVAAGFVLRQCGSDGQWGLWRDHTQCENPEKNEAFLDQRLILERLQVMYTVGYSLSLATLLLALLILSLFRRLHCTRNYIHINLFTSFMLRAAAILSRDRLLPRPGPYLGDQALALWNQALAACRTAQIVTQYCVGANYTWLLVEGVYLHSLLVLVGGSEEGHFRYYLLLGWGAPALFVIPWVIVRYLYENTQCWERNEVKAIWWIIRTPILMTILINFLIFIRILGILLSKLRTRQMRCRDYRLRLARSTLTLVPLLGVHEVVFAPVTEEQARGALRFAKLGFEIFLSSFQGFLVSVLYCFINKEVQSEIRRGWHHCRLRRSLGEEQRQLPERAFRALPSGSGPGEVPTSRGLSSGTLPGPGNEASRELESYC

B1: Y-Aib-EGT-αMeF(2F)-TSDV-Aib-I-αMeL-LD-Orn-K((2-[2-(2-Amino-ethoxy)-ethoxy]-acetyl)2-(γ-Glu)-CO-(CH2)12-CO2H)AQ-Aib-E-αMeF-I-(D-Glu)-αMeY-LIEGGK((2-[2-(2-Amino-e … (peptide)
peptide: Y[Aib]EGT[αMePhe(2-F)]TSDV[Aib]I[αMeL]LD[Orn]K([AEEA-AEEA-γGlu-C14 diacid])AQ[Aib]E[αMeF]I[dE][αMeY]LIEGGK([AEEA-AEEA-γGlu-C14 diacid])SSGAPPPS-NH2
B2: Y-Aib-EGT-αMeF(2F)-TSD-2Nal-SI-αMeL-LD-Orn-K((2-[2-(2-Amino-ethoxy)-ethoxy]-acetyl)2-(γ-Glu)-CO-(CH2)12-CO2H)AQ-Aib-EFI-(D-Glu)-αMeY-LIEGGK((2-[2-(2-Amino-ethox … (peptide)
peptide: YXEGTXTSDXSIXLDXKAQXEFIXXLIEGGKSSGAPPPS
modifications: Aib2, αMeF(2F)6, 2Nal10, αMeL13, Orn16, Aib20, D-Glu24, αMeY25; acylated K17, K31 (groups as in name); C-terminal amide
B3: Y-Aib-EGT-αMeF(2F)-TSD-ChG-SI-αMeL-LD-Orn-K((2-[2-(2-Amino-ethoxy)-ethoxy]-acetyl)2-(γ-Glu)-CO-(CH2)12-CO2H)AQ-Aib-EFI-(D-Glu)-αMeY-LIEGGK((2-[2-(2-Amino-ethoxy … (peptide)
peptide: B2 peptide
modifications: Aib2, αMeF(2F)6, ChG10, αMeL13, Orn16, Aib20, D-Glu24, αMeY25; acylated K17, K31 (groups as in name); C-terminal amide
B4: Y-Aib-EGT-αMeF(2F)-TSD-Ac5c-SI-αMeL-LD-Orn-K((2-[2-(2-Amino-ethoxy)-ethoxy]-acetyl)2-(γ-Glu)-CO-(CH2)12-CO2H)AQ-Aib-E-αMeF-I-(D-Glu)-αMeY-LIEGGK((2-[2-(2-Amino- … (peptide)
peptide: B2 peptide with F22X
modifications: Aib2, αMeF(2F)6, Ac5c10, αMeL13, Orn16, Aib20, αMeF22, D-Glu24, αMeY25; acylated K17, K31 (groups as in name); C-terminal amide
B5: Y-Aib-EGT-αMeF(2F)-TSD-4Pal-SI-αMeL-LD-Orn-K((2-[2-(2-Amino-ethoxy)-ethoxy]-acetyl)2-(γ-Glu)-CO-(CH2)12-CO2H)AQ-Aib-E-(3ClPhe)-I-(D-Glu)-αMeY-LIEGGK((2-[2-(2-Am … (peptide)
peptide: B2 peptide with F22X
modifications: Aib2, αMeF(2F)6, 4Pal10, αMeL13, Orn16, Aib20, 3ClPhe22, D-Glu24, αMeY25; acylated K17, K31 (groups as in name); C-terminal amide
B6: Y-Aib-EGT-αMeF(2F)-TSD-4Pal-SI-αMeL-LD-Orn-K((2-[2-(2-Amino-ethoxy)-ethoxy]-acetyl)2-(γ-Glu)-CO-(CH2)12-CO2H)AQ-Aib-E-3,5FPhe-I-(D-Glu)-αMeY-LIEGGK((2-[2-(2-Ami … (peptide)
peptide: B2 peptide with F22X
modifications: Aib2, αMeF(2F)6, 4Pal10, αMeL13, Orn16, Aib20, 3,5FPhe22, D-Glu24, αMeY25; acylated K17, K31 (groups as in name); C-terminal amide
B7: Y-Aib-EGT-αMeF(2F)-TSDVSI-αMeL-LD-Orn-K((2-[2-(2-Amino-ethoxy)-ethoxy]-acetyl)2-(γ-Glu)-CO-(CH2)12-CO2H)AQ-Aib-EFI-(D-Glu)-αMeY-LIEGGK((2-[2-(2-Amino-ethoxy)-et … (peptide)
peptide: B2 peptide with X10V
modifications: Aib2, αMeF(2F)6, αMeL13, Orn16, Aib20, D-Glu24, αMeY25; acylated K17, K31 (groups as in name); C-terminal amide
B8: Y-Aib-EGT-αMeF(2F)-TSD-Ac4c-SI-αMeL-LD-Orn-K((2-[2-(2-Amino-ethoxy)-ethoxy]-acetyl)2-(γ-Glu)-CO-(CH2)12-CO2H)AQ-Aib-EFI-(D-Glu)-αMeY-LIEGGK((2-[2-(2-Amino-ethox … (peptide)
peptide: B2 peptide
modifications: Aib2, αMeF(2F)6, Ac4c10, αMeL13, Orn16, Aib20, D-Glu24, αMeY25; acylated K17, K31 (groups as in name); C-terminal amide
B9: Y-Aib-EGT-αMeF(2F)-TSD-4Pal-SI-αMeL-LD-Orn-K((2-[2-(2-Amino-ethoxy)-ethoxy]-acetyl)2-(γ-Glu)-CO-(CH2)12-CO2H)AQ-Aib-EFIG-αMeY-LIEGGK((2-[2-(2-Amino-ethoxy)-etho … (peptide)
peptide: B2 peptide with X24G
modifications: Aib2, αMeF(2F)6, 4Pal10, αMeL13, Orn16, Aib20, αMeY25; acylated K17, K31 (groups as in name); C-terminal amide
B10: Y-Aib-EGT-αMeF(2F)-TSDVSI-αMeL-LD-Orn-K((2-[2-(2-Amino-ethoxy)-ethoxy]-acetyl)2-(γ-Glu)-CO-(CH2)12-CO2H)AQ-Aib-E-αMeF-I-(D-Glu)-αMeY-LIEGGK((2-[2-(2-Amino-ethox … (peptide)
peptide: B2 peptide with X10V, F22X
modifications: Aib2, αMeF(2F)6, αMeL13, Orn16, Aib20, αMeF22, D-Glu24, αMeY25; acylated K17, K31 (groups as in name); C-terminal amide
B11: Y-Aib-EGT-αMeF(2F)-TSD-4Pal-GI-αMeL-LD-Orn-K((2-[2-(2-Amino-ethoxy)-ethoxy]-acetyl)2-(γ-Glu)-CO-(CH2)12-CO2H)AQ-Aib-EFI-(D-Glu)-αMeY-LIEGGK((2-[2-(2-Amino-ethox … (peptide)
peptide: B2 peptide with S11G
modifications: Aib2, αMeF(2F)6, 4Pal10, αMeL13, Orn16, Aib20, D-Glu24, αMeY25; acylated K17, K31 (groups as in name); C-terminal amide
B12: Y-Aib-EGT-αMeF(2F)-TSD-4Pal-SI-αMeL-LD-Orn-K((2-[2-(2-Amino-ethoxy)-ethoxy]-acetyl)2-(γ-Glu)-CO-(CH2)12-CO2H)AQ-Aib-E-2Nal-I-(D-Glu)-αMeY-LIEGGK((2-[2-(2-Amino- … (peptide)
peptide: B2 peptide with F22X
modifications: Aib2, αMeF(2F)6, 4Pal10, αMeL13, Orn16, Aib20, 2Nal22, D-Glu24, αMeY25; acylated K17, K31 (groups as in name); C-terminal amide
B13: Y-Aib-EGT-αMeF(2F)-TSD-Nle-SI-αMeL-LD-Orn-K((2-[2-(2-Amino-ethoxy)-ethoxy]-acetyl)2-(γ-Glu)-CO-(CH2)12-CO2H)AQ-Aib-EFI-(D-Glu)-αMeY-LIEGGK((2-[2-(2-Amino-ethoxy … (peptide)
peptide: B2 peptide
modifications: Aib2, αMeF(2F)6, Nle10, αMeL13, Orn16, Aib20, D-Glu24, αMeY25; acylated K17, K31 (groups as in name); C-terminal amide

Target: T1, human GIP receptor
Test: cell-based or functional assay

Row | Binder | cAMP EC50 (1.0% HSA) [nM] | cAMP Emax (1.0% HSA) [%]
1 | B1 | 5.58 | 92
2 | B2 | 4.55 | 
3 | B3 | 5.49 | 
4 | B4 | 2.81 | 
5 | B5 | 1.27 | 
6 | B6 | 1.05 | 
7 | B7 | 3.81 | 104
8 | B8 | 4.68 | 
9 | B9 | 0.52 | 95.9
10 | B10 | 2.64 | 102
11 | B11 | 2.61 | 98.3
12 | B12 | 2.49 | 
13 | B13 | 1.2 | 

Target: human GLP-1 receptor (human, UniProt P43220 24-463)
Test: cell-based or functional assay

Row | Binder | cAMP EC50 (1.0% HSA) [nM] | cAMP Emax (1.0% HSA) [%]
14 | B1 | 66 | 
15 | B2 | 39.3 | 
16 | B3 | 227 | 
17 | B4 | 145 | 113
18 | B5 | 34 | 85.8
19 | B6 | 25.5 | 104
20 | B7 | 23.4 | 96.6
21 | B8 | 8.84 | 84
22 | B9 | 12.3 | 95.8
23 | B10 | 76.8 | 108
24 | B11 | 402 | 123
25 | B12 | 20 | 81.1
26 | B13 | 28.5 | 

Target: human glucagon receptor (human, UniProt P47871 26-477)
Test: cell-based or functional assay

Row | Binder | cAMP EC50 (1.0% HSA) [nM]
27 | B1 | > 9950
28 | B2 | > 9950
29 | B3 | > 9950
30 | B4 | > 9950
31 | B5 | > 9950
32 | B6 | > 9950
33 | B7 | > 9950
34 | B8 | > 9950
35 | B9 | > 9950
36 | B10 | > 9950
37 | B11 | > 9950
38 | B12 | > 9950
39 | B13 | > 9950
